According to the supplement of paper PMC9112550, “Optimization of the antimicrobial peptide Bac7 by deep mutational scanning” (BMC Biology, 2022):

tested on: Escherichia coli TOP10; assay: shrunken log2 fold change of peptide-encoding DNA abundance (4.5 h post-induction vs induction); higher = less antimicrobial activity (less host growth inhibition); conditions: time post-induction: 4.5 h; library: site-saturation at positions 5, 18, 19, 20
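Further: peptides expressed intracellularly from a pBAD plasmid library in pooled LB shake-flask culture, induced with 0.3% L-arabinose, DNA abundance read by NGS, three biological replicates, DESeq2 with apeglm shrinkage.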

Row | Sequence | shrunken log2 fold change
1 | RRIRMRPPRLPRPRPRPDCWPRP | 1.96
2 | RRIRRRPPRLPRPRPRPTRHPRP | 0.783
3 | RRIRSRPPRLPRPRPRPEVNPRP | 0.426
4 | RRIRGRPPRLPRPRPRPDPIPRP | 0.126
5 | RRIRPRPPRLPRPRPRPDDGPRP | -0.21
6 | RRIRYRPPRLPRPRPRPATMPRP | -0.69
7 | RRIRCRPPRLPRPRPRPGVFPRP | -0.00263
8 | RRIRMRPPRLPRPRPRPTVKPRP | -0.0616
9 | RRIRMRPPRLPRPRPRPAAEPRP | 2.71
10 | RRIRTRPPRLPRPRPRPEVCPRP | 0.212
11 | RRIRMRPPRLPRPRPRPNVMPRP | -0.108
12 | RRIRSRPPRLPRPRPRPEKEPRP | 0.00748
13 | RRIRERPPRLPRPRPRPMIMPRP | -0.00163
14 | RRIRYRPPRLPRPRPRPIFVPRP | -0.418
15 | RRIRQRPPRLPRPRPRPGRFPRP | 0.363
16 | RRIRGRPPRLPRPRPRPEQKPRP | 0.105
17 | RRIRPRPPRLPRPRPRPEKWPRP | 0.0413
18 | RRIRLRPPRLPRPRPRPGWKPRP | -0.0726
19 | RRIRKRPPRLPRPRPRPFPVPRP | -0.288
20 | RRIRRRPPRLPRPRPRPIPQPRP | 0.336
21 | RRIRVRPPRLPRPRPRPFDHPRP | -0.557
22 | RRIRYRPPRLPRPRPRPIWHPRP | -1.23
23 | RRIRGRPPRLPRPRPRPEYSPRP | 0.445
24 | RRIRIRPPRLPRPRPRPRSNPRP | -0.0529
25 | RRIRGRPPRLPRPRPRPGSAPRP | 0.972

Row | Sequence | shrunken log2 fold change
26 | RRIRQRPPRLPRPRPRPRMWPRP | -0.429
27 | RRIRWRPPRLPRPRPRPENEPRP | 0.194
28 | RRIRIRPPRLPRPRPRPSSWPRP | 0.025
29 | RRIRCRPPRLPRPRPRPQKKPRP | -0.0243
30 | RRIRMRPPRLPRPRPRPVALPRP | 0.711
31 | RRIRCRPPRLPRPRPRPVPHPRP | 0.0468
32 | RRIRVRPPRLPRPRPRPITCPRP | -0.324
33 | RRIRTRPPRLPRPRPRPLPTPRP | 0.368
34 | RRIRLRPPRLPRPRPRPMWYPRP | 0.0493
35 | RRIRCRPPRLPRPRPRPQPYPRP | -0.975
36 | RRIRRRPPRLPRPRPRPEQHPRP | 0.592
37 | RRIRVRPPRLPRPRPRPRHDPRP | 0.129
38 | RRIRPRPPRLPRPRPRPVVLPRP | 0.00791
39 | RRIRIRPPRLPRPRPRPNGVPRP | -0.37
40 | RRIRHRPPRLPRPRPRPNCTPRP | -0.142
41 | RRIRSRPPRLPRPRPRPPAEPRP | 2.3
42 | RRIRLRPPRLPRPRPRPDTGPRP | -0.243
43 | RRIRERPPRLPRPRPRPNPTPRP | 0.00617
44 | RRIRDRPPRLPRPRPRPRSWPRP | 0.131
45 | RRIRKRPPRLPRPRPRPRSDPRP | 0.197
46 | RRIRSRPPRLPRPRPRPRVRPRP | 0.217
47 | RRIRGRPPRLPRPRPRPTARPRP | 1.27
48 | RRIRYRPPRLPRPRPRPNRWPRP | 0.135
49 | RRIRFRPPRLPRPRPRPEVVPRP | 0.723
50 | RRIRGRPPRLPRPRPRPYAGPRP | -0.0412

Row | Sequence | shrunken log2 fold change
51 | RRIRWRPPRLPRPRPRPHVLPRP | -0.096
52 | RRIRIRPPRLPRPRPRPWINPRP | -0.379
53 | RRIRLRPPRLPRPRPRPRDGPRP | 1.06
54 | RRIRMRPPRLPRPRPRPYYWPRP | -0.123
55 | RRIRVRPPRLPRPRPRPGCLPRP | 0.236
56 | RRIRTRPPRLPRPRPRPRPQPRP | 0.146
57 | RRIRDRPPRLPRPRPRPWWIPRP | -0.0075
58 | RRIRQRPPRLPRPRPRPWKPPRP | -0.00884
59 | RRIRTRPPRLPRPRPRPTKFPRP | -0.638
60 | RRIRMRPPRLPRPRPRPNKIPRP | 0.0176
61 | RRIRRRPPRLPRPRPRPNHIPRP | -0.502
62 | RRIRARPPRLPRPRPRPYIWPRP | -0.543
63 | RRIRIRPPRLPRPRPRPIEKPRP | -0.0304
64 | RRIRTRPPRLPRPRPRPLMAPRP | -0.031
65 | RRIRPRPPRLPRPRPRPFTFPRP | -0.189
66 | RRIRCRPPRLPRPRPRPEDPPRP | 0.779
67 | RRIRQRPPRLPRPRPRPWFHPRP | 0.00902
68 | RRIRSRPPRLPRPRPRPARLPRP | 0.0986
69 | RRIRNRPPRLPRPRPRPWDLPRP | 0.0191
70 | RRIRRRPPRLPRPRPRPDDKPRP | 0.0703
71 | RRIRERPPRLPRPRPRPSRAPRP | 0.12
72 | RRIRHRPPRLPRPRPRPHEWPRP | 0.00275
73 | RRIRNRPPRLPRPRPRPFYCPRP | -0.937
74 | RRIRKRPPRLPRPRPRPYYAPRP | -0.0013
75 | RRIRKRPPRLPRPRPRPNVSPRP | 0.106
